Measurements reported in patent publication US20160361434.

Tests used:
[1] = molecular target: T1, CS9Q4
T1 chain: CYEQHKLPS

[2] = molecular target: T2, HH12Q11
T2 chain: HDLMWPDVYSQH

[3] = molecular target: T3, DH6Q5
T3 chain: DVYSQH

[4] = molecular target: T4, WG10Q7
T4 chain: WPDVYSQHGG

[5] = molecular target: T5, YV10
T5 chain: YLADTNSLAV

[6] = molecular target: T6, FY12Q10
T6 chain: FPWSSPLKHQEY

[7] = molecular target: T7, HH12N11
T7 chain: HDLMWPDVYSNH

[8] = molecular target: T8, TGpan
T8 chain: QG

[9] = molecular target: T9, FE5Q4
T9 chain: FWIQE

[10] = molecular target: T10, DH6N5
T10 chain: DVYSNH

[11] = molecular target: T11, CW8Q3
T11 chain: CDQMMLPW

[12] = molecular target: T12, GS12Q7
T12 chain: GGSPLAQSHGGS

[13] = molecular target: T13, HG14Q11
T13 chain: HDLMWPDVYSQHGG

[14] = molecular target: T14, SY10Q8
T14 chain: SPLKHQEY

[15] = molecular target: T15, CF13Q4
T15 chain: CYEQHKLPSSWPF

[16] = molecular target: Bovine serum albumin, P02769
Sequence of Bovine serum albumin, P02769 (P02769 25-607): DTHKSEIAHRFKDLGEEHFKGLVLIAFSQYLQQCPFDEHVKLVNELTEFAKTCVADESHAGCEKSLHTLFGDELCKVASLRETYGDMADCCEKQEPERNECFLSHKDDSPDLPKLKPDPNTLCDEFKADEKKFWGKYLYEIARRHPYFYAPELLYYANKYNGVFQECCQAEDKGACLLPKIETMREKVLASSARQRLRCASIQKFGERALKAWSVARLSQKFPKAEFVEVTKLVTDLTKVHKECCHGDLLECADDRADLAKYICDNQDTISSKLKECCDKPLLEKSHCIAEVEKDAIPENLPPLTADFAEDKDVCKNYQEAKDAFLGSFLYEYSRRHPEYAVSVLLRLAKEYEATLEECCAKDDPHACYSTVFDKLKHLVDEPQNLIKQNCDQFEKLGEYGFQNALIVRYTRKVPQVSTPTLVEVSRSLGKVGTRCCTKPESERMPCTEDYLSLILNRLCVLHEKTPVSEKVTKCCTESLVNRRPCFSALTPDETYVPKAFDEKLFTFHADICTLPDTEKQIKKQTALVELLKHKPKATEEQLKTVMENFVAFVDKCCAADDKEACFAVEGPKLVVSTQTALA

[17] = molecular target: BSA-HH12Q11 conjugate, P02769
Sequence of BSA-HH12Q11 conjugate, P02769 (P02769 25-607): as above

B1: Recombinant human transglutaminase 2 (hTG2) (protein)
chain: MAEELVLERCDLELETNGRDHHTADLCREKLVVRRGQPFWLTLHFEGRNYEASVDSLTFSVVTGPAPSQEAGTKARFPLRDAVEEGDWTATVVDQQDCTLSLQLTTPANAPIGLYRLSLEASTGYQGSSFVLGHFILLFNAWCPADAVYLDSEEERQEYVLTQQGFIYQGSAKFIKNIPWNFGQFEDGILDICLILLDVNPKFLKNAGRDCSRRSSPVYVGRVVSGMVNCNDDQGVLLGRWDNNYGDGVSPMSWIGSVDILRRWKNHGCQRVKYGQCWVFAAVACTVLRCLGIPTRVVTNYNSAHDQNSNLLIEYFRNEFGEIQGDKSEMIWNFHCWVESWMTRPDLQPGYEGWQALDPTPQEKSEGTYCCGPVPVRAIKEGDLSTKYDAPFVFAEVNADVVDWIQQDDGSVHKSINRSLIVGLKISTKSVGRDEREDITHTYKYPEGSSEEREAFTRANHLNKLAEKEETGMAMRIRVGQSMNMGSDFDVFAHITNNTAEEYVCRLLLCARTVSYNGILGPECGTKYLLNLNLEPFSEKSVPLCILYEKYRDCLTESNLIKVRALLVEPVINSYLLAERDLYLENPEIKIRILGEPKQKRKLVAEVSLQNPLPVALEGCTFTVEGAGLTEEQKTVEIPDPVEAGEEVKVRMDLLPLHMGLHKLVVNFESDKLKAVKGFRNVIIGPA
[1]
  TG2-mediated incorporation of biotin-cadaverine into plate-coupled peptide (A450): none of the other peptides react with the enzyme and cannot be used as substrate for TG2
[2]
  TG2-mediated incorporation of biotin-cadaverine into plate-coupled peptide (A450): HH12Q11 show less reactivity with TG2 than mTG
[3]
  TG2-mediated incorporation of biotin-cadaverine into plate-coupled peptide (A450): none of the other peptides react with the enzyme and cannot be used as substrate for TG2
[4]
  TG2-mediated incorporation of biotin-cadaverine into plate-coupled peptide (A450): none of the other peptides react with the enzyme and cannot be used as substrate for TG2
[5]
  TG2-mediated incorporation of biotin-cadaverine into plate-coupled peptide (A450): none of the other peptides react with the enzyme and cannot be used as substrate for TG2
[6]
  TG2-mediated incorporation of biotin-cadaverine into plate-coupled peptide (A450): none of the other peptides react with the enzyme and cannot be used as substrate for TG2
[7]
  TG2-mediated incorporation of biotin-cadaverine into plate-coupled peptide (A450): none of the other peptides react with the enzyme and cannot be used as substrate for TG2
[8]
  TG2-mediated incorporation of biotin-cadaverine into plate-coupled peptide (A450): TGpan is good substrate for TG2 confirming its specificity to this enzyme
[9]
  TG2-mediated incorporation of biotin-cadaverine into plate-coupled peptide (A450): none of the other peptides react with the enzyme and cannot be used as substrate for TG2
[10]
  TG2-mediated incorporation of biotin-cadaverine into plate-coupled peptide (A450): none of the other peptides react with the enzyme and cannot be used as substrate for TG2
[11]
  TG2-mediated incorporation of biotin-cadaverine into plate-coupled peptide (A450): none of the other peptides react with the enzyme and cannot be used as substrate for TG2
[12]
  TG2-mediated incorporation of biotin-cadaverine into plate-coupled peptide (A450): none of the other peptides react with the enzyme and cannot be used as substrate for TG2
[13]
  TG2-mediated incorporation of biotin-cadaverine into plate-coupled peptide (A450): none of the other peptides react with the enzyme and cannot be used as substrate for TG2
[14]
  TG2-mediated incorporation of biotin-cadaverine into plate-coupled peptide (A450): none of the other peptides react with the enzyme and cannot be used as substrate for TG2
[15]
  TG2-mediated incorporation of biotin-cadaverine into plate-coupled peptide (A450): none of the other peptides react with the enzyme and cannot be used as substrate for TG2

B2: Recombinant microbial transglutaminase (mTG) (protein)
chain: DSDDRVTPPAEPLDRMPDPYRPSYGRAETVVNNYIRKWQQVYSHRDGRKQQMTEEQREWLSYGCVGVTWVNSGQYPTNRLAFASFDEDRFKNELKNGRPRSGETRAEFEGRVAKESFDEEKGFQRAREVASVMNRALENAHDESAYLDNLKKELANGNDALRNEDARSPFYSALRNTPSFKERNGGNHDPSRMKAVIYSKHFWSGQDRSSSADKRKYGDPDAFRPAPGTGLVDMSRDRNIPRSPTSPGEGFVNFDYGWFGAQTEADADKTVWTHGNHYHAPNGSLGAMHVYESKFRNWSEGYSDFDRGAYVITFIPKSWNTAPDKVKQGWP
[1]
  mTG-mediated incorporation of biotin-X-cadaverine into plate-coupled peptide (A450): The other peptides listed in table 1 didn't show any reactivity with mTG
[2]
  mTG-mediated incorporation of biotin-X-cadaverine into plate-coupled peptide (A450): found to be good substrate for mTG with better reactivity of the peptides FE5Q4 and HH12Q11
[3]
  mTG-mediated incorporation of biotin-X-cadaverine into plate-coupled peptide (A450): Peptides FE5Q4, HH12Q11 and DH6Q7 were found to be good substrate for mTG
[6]
  mTG-mediated incorporation of biotin-X-cadaverine into plate-coupled peptide (A450): The other peptides listed in table 1 didn't show any reactivity with mTG
[16]
  mTG incorporation of biot-cad into coated protein (A450): no reactivity with free BSA
[7]
  mTG-mediated incorporation of biotin-X-cadaverine into plate-coupled peptide (A450): no reactivity of the mTG was observed
[8]
  mTG-mediated incorporation of biotin-X-cadaverine into plate-coupled peptide (A450): showed low reactivity to mTG in comparison with the other peptides
[9]
  mTG-mediated incorporation of biotin-X-cadaverine into plate-coupled peptide (A450): found to be good substrate for mTG with better reactivity of the peptides FE5Q4 and HH12Q11
[17]
  mTG incorporation of biot-cad into coated conjugate (A450): a good incorporation of biot-cad was obtained with BSA-HH12Q11 conjugate
[10]
  mTG-mediated incorporation of biotin-X-cadaverine into plate-coupled peptide (A450): The other peptides listed in table 1 didn't show any reactivity with mTG
[11]
  mTG-mediated incorporation of biotin-X-cadaverine into plate-coupled peptide (A450): The other peptides listed in table 1 didn't show any reactivity with mTG
[12]
  mTG-mediated incorporation of biotin-X-cadaverine into plate-coupled peptide (A450): showed low reactivity to mTG in comparison with the other peptides
[14]
  mTG-mediated incorporation of biotin-X-cadaverine into plate-coupled peptide (A450): The other peptides listed in table 1 didn't show any reactivity with mTG
[15]
  mTG-mediated incorporation of biotin-X-cadaverine into plate-coupled peptide (A450): The other peptides listed in table 1 didn't show any reactivity with mTG
